Test results taken from patent US8637043B2, “Compositions useful as ligands for the formyl peptide receptor like 1 receptor and methods of use thereof” (Chemocentryx, Inc., priority 2001, dated 2014).
“Also recorded” adds a separate entry of the source. Ends that are not written are not given here.

Key:
human neutrophils = test: Calcium flux in human neutrophils; format: cell-based; settings: for calcium flux: human neutrophils
Procedure: (§1) Ca^2+ mobilization responses were performed using the intracellular ratiometric fluorescent dye, lndo-1. Cells were loaded with Indo-1/AM (3 μM; Molecular Probes, Eugene, Oreg.) in culture medium (45 min, 20° C., 10^7 cells/ml). After dye loading, cells were washed once with 10 ml PBS) and resuspended at 10^6 cell/ml in HBSS containing 1% FBS. Cytosolic [Ca^2+] release was determined using excitation at 350 nm using a Photon Technology International fluorimeter (excitation at 350 nm, ratioed dual emission at 400 and 490 nm).
The human recombinant chemokines, leukotactin, MlP-1α, three known CKβ8 variants CKβ8(1-99), CKβ8(25-99), CKβ8-1(1-116) and a novel NH2-terminal truncated form of CKβ8-1, CKβ8-1 (25-116) were obtained from R&D Systems (Minneapolis, Minn.). Human monocytes were generated from buffy coats (Stanford Blood Center, Palo Alto, Calif.) following a standard protocol. Briefly, PBMC were isolated by standard density gradient centrifugation (Ficoll-Paque-Plus, Pharmacia). Monocytes were purified using CD14 Microbeads (Miltenyi, Auburn, Calif.) magnetic positive selection. Human neutrophils were isolated from fresh peripheral blood from healthy individuals by gradient centrifugation on Ficoll-Hypaque (Hyclone, Calif.).
Human monocytes were either generated from buffy coats (Stanford Blood Center, Palo Also, Calif.) or from fresh blood of healthy individuals following a standard protocol. Briefly, PBMC were isolated by a Ficoll-Paque gradient centrifugation (Ficoll-Paque-Plus, Pharmacia). Monocytes were purified by CD14 Microbeads (Miltenyi) magnetic positive selection. Human neutrophils were isolated from fresh blood by dextran sedimentation and gradient centrifugation Ficoll-Paque gradient centrifugation. All cells were washed and resuspended (1×10^7/ml) in RPMI medium with 10% FBS.
as §1, with “an” for “the”, “Indo-1.” for “lndo-1.”, “Probes (Eugene, Oreg.))” for “Probes, Eugene, Oreg.)”, “cells/mi).” for “cells/ml).”, “(10” for “with 10”

CCR1 = molecular target: T1, CCR1 (Homo sapiens, UniProt P32246); test: Intracellular calcium flux in HEK293-CCR1 transfectants; format: cell-based; settings: 100 nM; for calcium flux: HEK293-CCR1 transfectants; for maximal receptor stimulation compared with leukotactin: same concentration of leukotactin
T1 construct: full length cDNA encoding CCR1 was cloned by the polymerase chain reaction (PCR) from genomic DNA isolated from human peripheral blood cells; expressed in transfected cells; pcDNA3.1 vector)
T1 sequence (P32246 1-355): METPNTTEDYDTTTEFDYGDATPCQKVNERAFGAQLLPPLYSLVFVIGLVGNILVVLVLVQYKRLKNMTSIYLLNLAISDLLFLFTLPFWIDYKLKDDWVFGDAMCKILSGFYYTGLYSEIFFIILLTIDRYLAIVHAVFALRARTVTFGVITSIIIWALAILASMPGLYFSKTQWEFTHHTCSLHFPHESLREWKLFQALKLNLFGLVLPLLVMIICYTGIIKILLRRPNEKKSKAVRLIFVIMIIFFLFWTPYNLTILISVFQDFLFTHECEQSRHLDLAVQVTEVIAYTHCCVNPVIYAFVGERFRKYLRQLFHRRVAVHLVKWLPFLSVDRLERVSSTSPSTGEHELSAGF
Procedure: The human recombinant chemokines, leukotactin, three known CKβ8 variants CKβ8(1-99), CKβ8(25-99), CKβ8-1(1-116) and a novel NH2-terminal truncated form of CKβ8-1, CKβ8-1 (25-116) were obtained from R&D Systems (Minneapolis, Minn.). CKβ8-1(25-116) was compared with the other three variants for the ability to elicit an intracellular calcium mobilization in stable human CCR1 transfected […] cells. Human HEK293-CCR1 cells were prepared using Fugena 6 (Roche, Ind.) following the manufacturer's protocol. The HEK-293 cell lines were maintained in DMEM with 10% FBS supplemented with 800 μg/ml G-418.
Stable expression of human chemokine receptor CCR1 in HEK293 cell was obtained as follows: full length cDNA encoding CCR1 was cloned by the polymerase chain reaction (PCR) from genomic DNA isolated from human peripheral blood cells. The PCR product was cloned into pcDNA3.1 (Invitrogen, Carlsbad, Calif.) using standard molecular cloning procedures and completely sequenced to confirm identity.
Two micrograms of the CCR1/pcDNA3.1 construct were used to transfect the HEK293 cells as follows. FuGENE:DNA complex was prepared by mixing 6.0 μl FuGENE 6 reagent (Roche Molecular Biochemicals, Calif.) and 2 μg CCR1/pcDNA3.1 in 100 ul of serum-free medium (Hyclone, Colo.). After incubating for 30 minutes at room temperature, the complex was added to a 60 mm culture plate containing 0.5-1×10^6 cells in 10 ml DMEM medium supplemented with 10% FBS (Hyclone, Colo.). After mixing, the cells were returned to the incubator to culture at 37° C. for two days. At 48 hours post-transfection, Genetinin (G418) (Mediatech, Herndon, Va.) was added at a final concentration of 800 ug/ml. The cells were then plated in 96-well plates at a concentration of 20,000 cells/well. After 2-3 weeks under G418 selection, stable geneticin-resistant CCR1 expressing cells were assessed for their ability to mobilize calcium in response to MIP-1α at a concentration of 1-500 nM.
as §1
With HEKCCR1-293 transfectants, CKβ8-1(25-116) and the other CKβ8 variants induced a rapid calcium flux at 100 nM.

Q: With MLWRRKIGPQMTLSHAAG [SEQ ID NO: 1] as the molecule, how does the calcium flux (human neutrophils; Example 8) read?
A: robust calcium flux

Q: MLWRRKIGPQMTLSHAAY [SEQ ID NO: 6] was tested. Which calcium flux (human neutrophils; Example 8) did it give?
A: robust calcium flux

B1: CKβ8-1(1-116): alternatively spliced form of CKβ8, 116 amino acids, human recombinant chemokine (protein, listed as Homo sapiens)
chain: RVTKDAETEFMMSKLPLENPVLLDMLWRRKIGPQMTLSHAAGFHATSADCCISYTPRSIPCSLLESYFETNSECSKPGVIFLTKKGRRFCANPSDKQVQVCMRMLKLDTRIKTRKN
Q: What does the source list for B1?
A: calcium flux (human neutrophils; 100 nM): neither MlP-1α nor CKβ8(1-99), CKβ8(25-99) or CKβ8(1-116) induced a calcium flux; calcium flux (CCR1): lower

B2: CKβ8(25-99): known truncated CKβ8 variant, human recombinant chemokine from R&D Systems (protein, listed as Homo sapiens)
chain: RFHATSADCCISYTPRSIPCSLLESYFETNSECSKPGVIFLTKKGRRFCANPSDKQVQVCMRMLKLDTRIKTRKN
Q: For B2, which calcium flux (human neutrophils; 100 nM) is on record?
A: neither MlP-1α nor CKβ8(1-99), CKβ8(25-99) or CKβ8(1-116) induced a calcium flux

Q: And the “maximal receptor stimulation compared with leukotactin” value (CCR1)?
A: equivalent to those obtained with the same concentration of the CCR1 agonist, leukotactin

Q: And the calcium flux (CCR1)?
A: high calcium response; also recorded: lower

B3: CKβ8-1(25-116): novel NH2-terminal truncated form of CKβ8-1, SEQ ID NO: 16, human recombinant chemokine (protein, listed as Homo sapiens)
chain: MLWRRKIGPQMTLSHAAGFHATSADCCISYTPRSIPCSLLESYFETNSECSKPGVIFLTKKGRRFCANPSDKQVQVCMRMLKLDTRIKTRKN
Q: With B3 as the molecule, how does the calcium flux (human neutrophils; 100 nM) read?
A: induced an unique calcium release

Q: What about the calcium flux (human neutrophils; Example 8) of the same molecule?
A: robust calcium flux

Q: And the “magnitude of calcium release compared with leukotactin” value (human neutrophils; neutrophils, same amount of leukotactin)?
A: much higher than observed for the same amount of leukotactin stimulation

Q: What about the “maximal receptor stimulation compared with leukotactin” value (CCR1) of the same molecule?
A: equivalent to those obtained with the same concentration of the CCR1 agonist, leukotactin

Q: What about the calcium flux (CCR1) of the same molecule?
A: high calcium response
